According to patent US20130273026A1, “COMPOSITION AND METHOD FOR MODULATING INFLAMMATORY MOLECULES WITH AMYLASE” (INTEGRATIVE ENZYMATICS, INC., priority 2012, published 2013):
Where a name gives a salt, the structure may show the parent alone.

Columns and labels:
BKS.Cg-Dock7m mice [1] = assay: Serum insulin ELISA in diabetic obese mice after 28 days of dosing; type: in vivo; details: for Serum insulin levels compared to vehicle control: at necropsy after 28 consecutive days, Test Compound 1 at 1× or 3× IP, Metformin oral gavage
Procedure: (§1) BKS.Cg-Dock7m mice were treated with control and an Amylase compound according to an embodiment of the present invention. In the absence of treatment, the BKS.Cg-Dock7m mice are homozygous for the diabetes spontaneous mutation (Lepr^db) and become obese at approximately three to four weeks of age. […] At the beginning of the animal trial, the test animals were obese, severely hyperinsulemic and hyperglycemic. After 28 consecutive days of dosing, the animals were euthanized and tissue analyzed. Compounds described herein were tested against the positive control of Metformin hydrochloride (“Metformin”)
(§2) Animals were manually restrained and administered Metformin by oral gavage using a disposable gavage needle. The target dose was 5 mL/kg, and actual dose volumes ranged from 190 to 260 μL/animal.
(§3) Amylase was purchased from Abcam (product ID: ab77861) at a dilution of 340 Units/mL. Each animal was treated with Amylase to achieve a dilution of 80 Units/L of blood. The test compound was diluted in phosphate buffer saline (PBS) and each day the test animals were injected with 300 uL of the Amylase-PBS solution. For every 299.4 uL of PBS, 0.6 uL of Amylase was used to achieve a concentration of 80 Units/Liter assuming a body weight of 45 g. The aliquots were stored at −80 C.
Amylase was purchased from Abcam (product ID: ab77861) at a dilution of 340 Units/mL. Each animal was treated with Amylase to achieve a dilution of 240 Units/L of blood. […]
1× (used synonymously with TV1) and 3× (used synonymously with TV2) doses of human alpha-Amylase enzyme (referred to herein as Test Compound 1) were determined to be 80 Units/Liter of blood volume and 240 Units/Liter of blood volume respectively. […]
Referring now to FIG. 9, insulin values were measured in serum from four animals from each treatment group at the time of necropsy following 28 consecutive days of dosing with Control (metformin), Test Compound 1 (SEQ ID NO 1), or vehicle alone. […] The processed plates were read using a Molecular Devices VersaMax plate reader.

BKS.Cg-Dock7m mice [2] = assay: Body weight loss in diabetic obese mice; type: in vivo
Procedure: as §1, §2, §3
Amylase was purchased from Abcam (product ID: ab77861) at a dilution of 340 Units/mL. Each animal was treated with Amylase to achieve a dilution of 240 Units/L of blood. The test compound was diluted in phosphate buffer saline (PBS) and each day the test animals were injected with 300 uL of the Amylase-PBS solution. For every 298.3 uL of PBS, 1.7 uL of Amylase was used to achieve a concentration of […] assuming a body weight of 45 g. The aliquots were stored at −80 degrees C.
(§4) 1× (used synonymously with TV1) and 3× (used synonymously with TV2) doses of human alpha-Amylase enzyme (referred to herein as Test Compound 1) were determined to be 80 Units/Liter of blood volume and 240 Units/Liter of blood volume respectively. Animals were manually restrained and administered a target volume of 300 μL of phosphate buffered saline (PBS) (vehicle), by IP injection, once per day, on Days 1-28. Actual dose volumes changed throughout the study and ranged from 300 to 310 μL. Endpoints include daily clinical observations and body weights. Creatinine, insulin, Protein Urea/Creatinine levels, clinical pathology and gross pathology at necropsy were also obtained. The mice were euthanized and necropsied on Day 28.
Body weights were measured prior to the study for randomization. Additional weekly body weights were collected throughout the study. We also were interested in weight loss for the animals for various treatment regimens. Referring now to Table 1 weight loss data as a percent weight loss with the reference being the weight before any treatment is illustrated for each test group. […] As with the insulin data, there is a dose dependent trend between 1× and 3×. The higher dose of Test Compound 1 outperforms metformin.

BKS.Cg-Dock7m mice [3] = assay: Urine Protein Urea/Creatinine ratio; type: in vivo; details: for Nephroprotective effect: from Protein Urea to Creatinine ratio
Procedure: as §1, §4
Referring now to FIG. 11, Protein Urea/Creatinine Levels are measured and shown. Creatinine levels are directly related to muscle mass in mice and so higher Creatinine is correlated with higher muscle mass. A healthy Protein Urea to Creatinine level is 1. Higher levels imply kidney damage. […] Optimal Protein Urea: Creatinine is 1.

Mast cells = assay: Histamine ELISA of IgE/anti-IgE-induced mast cell degranulation; type: cell-based; details: for Histamine release (ELISA): 1× (100 Units/L) and 10× (1000 Units/L) Amylase, IgE + anti-IgE
Procedure: Referring now to FIG. 1, Mast cells were treated with IgE, anti-IgE and varying doses of alpha-Amylase in a medium that would permit binding. In this experiment, Mast cells were grown to confluence, harvested and resuspended in 8 ml PBS and a 3 ml aliquot was plated in triplicate. 0.29 ml (100 Units) of Amylase was added to 0.7 mL PBS bringing the total volume to 1 mL. 3 μL was used in the 1× Amylase dose and 30 μL was used in the 10× Amylase dose. 1 set of triplicates was incubated with 1× Amylase (100 Units/L) and the second set with 10× Amylase (1000 Units/L). After 10 minutes, 250 μL of IgE was added, and then 200 μL of anti-IgE. The cells were incubated at 37 degrees Celsius during this time. 50 μL was taken at 1 hour, 2.5 hours and 4 hours and subjected to histamine level analysis via ELISA. A control set was co-incubated with PBS.
Anti-IgE when added to IgE-incubated Mast cells causes degranulation. Histamine release occurs during degranulation. Measurements were taken from all three subsets at 1 hour, 2.5 hours and 4 hours and subjected to analysis of histamine levels by ELISA from Oxford Biolabs. FIG. 1 is a graph of the results of an ELISA in which histamine levels are measured. Higher absorbance rates correlate to lower levels of Histamine.
Degranulation based upon the Immunoglobulin-E (IgE)-Anti-IgE reaction is well documented in the literature. Histamine levels were detected by an ELISA kit and served as a marker for degranulation. […] This implies that cellular degranulation was prevented in a time and dose-dependent manner by the addition of Amylase.

IgE = assay: Co-immunoprecipitation of Amylase and IgE; type: binding
Procedure: Referring now to FIG. 3, an immunoblot is shown having samples in lanes 1-8. The samples are prepared as follows. 10 μg of Amylase was mixed with 1 μg of IgE and incubated overnight at 4° C. and then for one hour at 37° C. Anti-Amylase antibody was used for immunoprecipitation. Anti-IgE antibody was used for immunoblotting. BSA was used as a competitive binding control. A sample with no IgE and […] of BSA+10 microgram of Amylase (lane 2) was used as negative control for immunoblotting. (Lanes 3 and 4 represent 0.5 μg BSA, lanes 5 and 6 represent 0.5 μg BSA and lanes 7 and 8 represent 0.05 μg BSA). After immunoprecipitation, pellets were dissolved in 45 microliters of Laemmli sample buffer and 15 microliters were loaded on the gel. 1 microgram of IgE was used as positive control (lane 1).
Referring now to FIG. 2, an immunoblot is shown having samples in lanes 1-8. The samples are prepared as follows.

BKS.Cg-Dock7m mice [4] = assay: Urine creatinine vs percentage of total weight loss; type: in vivo; details: 1× dose
Procedure: as §1
as §4, with “Creatinine, insulin, Protein Urea/Creatinine levels, clinical pathology and gross pathology at necropsy were also obtained. The mice were euthanized and necropsied on Day 28.” left out
The source of the weight loss, (whether fat or muscle) is physiologically critical. […] Referring now to FIG. 10, to quantify the source of the weight loss, we examined urine creatinine levels in the test animals. […]

[5] = Metformin positive control, oral gavage
[6] = 1X dose (80 Units/Liter of blood volume) IP daily
[7] = 3X dose (240 Units/Liter of blood volume) IP daily

## CN(C)C(=N)N=C(N)N [Metformin, Metformin hydrochloride, reference compound]
BKS.Cg-Dock7m mice [1]
  Serum insulin levels compared to vehicle control: moderate decreases in serum insulin levels compared to vehicle control animals
BKS.Cg-Dock7m mice [2]; [5]
  Body Weight % Lost, % Weight loss n = 4: 7%
  Body Weight % Lost, % Weight loss n = 6: 6.9%
  Body Weight % Lost, % Weight loss raw: 7.4%
BKS.Cg-Dock7m mice [3]
  Nephroprotective effect: nephroprotective

B1: Test Compound 1: human alpha-Amylase enzyme (SEQ ID NO 1, pancreatic Amylase alpha 2A), purchased from Abcam (product ID: ab77861) (protein)
chain: QYSPNTQQGRTSIVHLFEWRWVDIALECERYLAPKGFGGVQVSPPNENVAIYNPFRPWWERYQPVSYKLCTRSGNEDEFRNMVTRCNNVGVRIYVDAVINHMCGNAVSAGTSSTCGSYFNPGSRDFPAVPYSGWDFNDGKCKTGSGDIENYNDATQVRDCRLTGLLDLALEKDYVRSKIAEYMNHLIDIGVAGFRLDASKHMWPGDIKAILDKLHNLNSNWFPAGSKPFIYQEVIDLGGEPIKSSDYFGNGRVTEFKYGAKLGTVIRKWNGEKMSYLKNWGEGWGFVPSDRALVFVDNHDNQRGHGAGGASILTFWDARLYKMAVGFMLAHPYGFTRVMSSYRWPRQFQNGNDVNDWVGPPNNNGVIKEVTINPDTTCGNDWVCEHRWRQIRNMVIFRNVVDGQPFTNWYDNGSNQVAFGRGNRGFIVFNNDDWSFSLTLQTGLPAGTYCDVISGDKINGNCTGIKIYVSDDGKAHFSISNSAEDPFIAIHAESKL
modifications: homo sapien
Mast cells; 1 hour, vs PBS control
  Histamine release (ELISA): the levels of Histamine released in the 1× and 10× doses were the same, with higher release in the negative control
Mast cells; 2.5 hours
  Histamine release (ELISA): dose dependency with less histamine release compared to 1 hour
Mast cells; 4 hours
  Histamine release (ELISA): greater histamine release in the 1× and 10× doses
Mast cells; overall, samples treated with Amylase, 1 to 4 hours, 1× and 10×
  Histamine levels as marker for degranulation: lower in a manner that was both time and dose dependent
IgE; 1 μg IgE + 0.5, 5, 10 μg Amylase, anti-IgE immunoprecipitation, anti-Amylase immunoblot
  Amylase co-immunoprecipitation with IgE: binding of Amylase and IgE was observed to behave in a dose-dependent manner
IgE; 10 μg Amylase + 1 μg IgE, anti-Amylase immunoprecipitation, anti-IgE immunoblot, BSA as competitive binding control
  IgE co-immunoprecipitation with Amylase: IgE immunoprecipitated with Amylase under conditions of increasing concentrations of BSA, demonstrating little non-specific binding
BKS.Cg-Dock7m mice [1]; Treatment Group 3: 3× dose (240 Units/liter of blood volume) IP, 28 days
  Change in insulin levels: did exhibit a change in insulin levels
BKS.Cg-Dock7m mice [1]
  Serum insulin levels compared to vehicle control: moderate decreases in serum insulin levels compared to vehicle control animals
BKS.Cg-Dock7m mice [2]; [6]
  Body Weight % Lost, % Weight loss n = 4: 5%
  Body Weight % Lost, % Weight loss n = 6: 5.2%
  Body Weight % Lost, % Weight loss raw: 5.5%
BKS.Cg-Dock7m mice [2]; 1× and 3× doses
  Weight loss compared with metformin: dose-dependency in weight loss with our 1× of Test Compound 1 and 3× of Test Compound 1 doses outperforming metformin
BKS.Cg-Dock7m mice [2]; [7]
  Body Weight % Lost, % Weight loss n = 4: 10%
  Body Weight % Lost, % Weight loss n = 6: 8.3%
  Body Weight % Lost, % Weight loss raw: 7.4%
BKS.Cg-Dock7m mice [4]
  Source of the weight loss (fat or muscle) from urine creatinine: the majority of weight lost is fat content and muscle mass is preserved
BKS.Cg-Dock7m mice [3]
  Nephroprotective effect: nephroprotective
BKS.Cg-Dock7m mice [3]; treatment group 2 (1× dose) vs group 4 (metformin) and group 1 (vehicle)
  Protein Urea to Creatinine ratio in urine: lower Protein Urea to Creatinine ratio compared to urine from animals in treatment group 4 or animals in treatment group 1
